Data: patent US20050170451A1

What was measured:
[1] = molecular target: soluble fragment of human IgE receptor (FcεRI) α chain (human) (UniProt P12319); test: competition ELISA: inhibition of binding of biotin-labeled FcεRI α chain (55 ng/mL) to immobilized human IgE, at scFv >= 100 µg/ml
[2] = molecular target: soluble fragment of human IgE receptor (FcεRI) α chain (human) (UniProt P12319); test: SPR (BIAcore), purified scFv
[3] = molecular target: soluble fragment of human IgE receptor (FcεRI) α chain (human) (UniProt P12319); test: competition ELISA: inhibition of binding of biotin-labeled FcεRI α chain (55 ng/mL) to immobilized human IgE

Chain of UniProt P12319 (P12319 26-197 limits assumed): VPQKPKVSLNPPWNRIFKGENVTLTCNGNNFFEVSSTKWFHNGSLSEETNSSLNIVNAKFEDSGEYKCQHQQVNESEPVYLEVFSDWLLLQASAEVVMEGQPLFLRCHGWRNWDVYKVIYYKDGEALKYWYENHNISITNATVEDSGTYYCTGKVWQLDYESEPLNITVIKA

- inhibition rate [1]: > 90%
- Kd [2]: 5.8 nM
- scFv concentration at which inhibition is seen [3]: > 0.1 µg/mL
B1: αFcR51 scFv (human anti-human FcεRI α chain single-chain Fv clone) (scFv, part only; not given: VH-VL linker and E tag, V domains shown, not shown: another chain or arm of the molecule; small tags and cut ends)
VH: QVQLQEWGGGLVQPGGSLRLSCAASGFTVSSNYMSWVRQAPGKGLEWVSVIYRGGSGDNTYYAGSVKGRFTISRDNSKNTVYLQMNSLRAEDTAVYYCVRSSDVGYGILRGYMDVWGKGTTVTVSS
VL: HVILTQPPSVSVSPGQTARIPCSGQDLTNKYVSWYQLQSGQSPALVIYEDSKRPSGIPERFSGSNSGDTATLTITGTQAADEADFFCQAYDTNGWVFGAGTKLTVL
